Measured values: patent US11242370B2, “Neuregulin-4 compounds and methods of use” (Eli Lilly and Company, priority 2019, dated 2022)

Target: T1, HER4 receptor extracellular domain (ECD) (Homo sapiens, UniProt Q15303)
T1 construct: C-terminal His-tagged HER4 receptor extracellular domain (ECD) construct
T1 sequence (Q15303 26-651 limits assumed): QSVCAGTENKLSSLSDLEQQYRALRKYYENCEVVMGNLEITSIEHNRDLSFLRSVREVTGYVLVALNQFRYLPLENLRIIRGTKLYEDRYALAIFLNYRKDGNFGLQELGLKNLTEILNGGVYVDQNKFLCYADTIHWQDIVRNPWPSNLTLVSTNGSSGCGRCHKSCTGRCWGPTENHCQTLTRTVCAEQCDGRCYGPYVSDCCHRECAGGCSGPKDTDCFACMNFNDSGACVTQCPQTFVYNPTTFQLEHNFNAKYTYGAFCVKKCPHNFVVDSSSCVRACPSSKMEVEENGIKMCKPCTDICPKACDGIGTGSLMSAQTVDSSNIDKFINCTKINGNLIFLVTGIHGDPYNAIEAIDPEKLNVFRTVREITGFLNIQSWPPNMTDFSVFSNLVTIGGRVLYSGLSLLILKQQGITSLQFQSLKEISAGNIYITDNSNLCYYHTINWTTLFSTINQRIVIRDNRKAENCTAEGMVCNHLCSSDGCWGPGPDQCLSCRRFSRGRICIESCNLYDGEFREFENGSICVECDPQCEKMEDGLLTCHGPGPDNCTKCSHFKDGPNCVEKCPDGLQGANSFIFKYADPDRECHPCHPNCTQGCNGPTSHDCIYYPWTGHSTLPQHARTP
Test: HER4/NRG-Fc binding assay (ELISA) for screening NRG4 variants
Protocol: A binding assay is utilized to perform high-throughput screening of NRG4 variant Fc fusion proteins to HER4 receptor, to identify affinity-driven variants with the potential to increase receptor activation and signaling. ELISA plates are coated with an anti-His tag antibody at 2 μg/ml in PBS to facilitate the standardized capture of a C-terminal His-tagged HER4 receptor extracellular domain (ECD) construct after blocking the plate with 1% BSA/PBS/0.1% Tween 20 (HER4 ECD at 5 μg/ml). Saturating amounts of unpurified NRG4-Fc variants in expression media (Starting at 10 μg/ml with serial dilutions in 1% BSA/PBS/0.1% Tween 20) are incubated with the captured receptor for 1 hour. After washing, bound variant NRG4-Fc is detected colorimetrically with an anti-human Fc-specific alkaline phosphatase secondary detection reagent to quantitate binding. Incubation times of variant binding to receptor or durations of the subsequent wash steps are varied to further identify binding variants driven by affinity on-rate and off-rate, respectively.

[1] = Dose # 1: Example 1 10.65, WT NRG1 10, WT NRG4 17 μg/mL
[2] = Dose # 2: Example 1 5.325, WT NRG1 5, WT NRG4 8.5 μg/mL
[3] = Dose # 3: Example 1 2.6625, WT NRG1 2.5, WT NRG4 4.25 μg/mL
[4] = Dose # 4: Example 1 1.33125, WT NRG1 1.25, WT NRG4 2.125 μg/mL
[5] = Dose # 5: Example 1 0.665625, WT NRG1 0.625, WT NRG4 1.0625 μg/mL
[6] = Dose # 6: Example 1 0.332813, WT NRG1 0.3125, WT NRG4 0.53125 μg/mL
[7] = Dose # 7: Example 1 0.166406, WT NRG1 0.15625, WT NRG4 0.265625 μg/mL
[8] = Dose # 8: Example 1 0.083203, WT NRG1 0.078125, WT NRG4 0.132813 μg/mL
[9] = Dose # 9: Example 1 0.041602, WT NRG1 0.039063, WT NRG4 0.066406 μg/mL
[10] = Dose # 10: Example 1 0.020801, WT NRG1 0.019531, WT NRG4 0.033203 μg/mL
[11] = Dose # 11: Example 1 0.0104, WT NRG1 0.009766, WT NRG4 0.016602 μg/mL
[12] = Dose # 12: Example 1 0.0052, WT NRG1 0.004883, WT NRG4 0.008301 μg/mL

| O.D. 405, binding to HER4 extracellular domain [1] | O.D. 405, binding to HER4 extracellular domain [2] | O.D. 405, binding to HER4 extracellular domain [3] | O.D. 405, binding to HER4 extracellular domain [4] | O.D. 405, binding to HER4 extracellular domain [5] | O.D. 405, binding to HER4 extracellular domain [6] | O.D. 405, binding to HER4 extracellular domain [7] | O.D. 405, binding to HER4 extracellular domain [8] | O.D. 405, binding to HER4 extracellular domain [9] | O.D. 405, binding to HER4 extracellular domain [10] | O.D. 405, binding to HER4 extracellular domain [11] | O.D. 405, binding to HER4 extracellular domain [12] | Substance |
| --- | --- | --- | --- | --- | --- | --- | --- | --- | --- | --- | --- | --- |
| 1.501 | 1.439 | 1.399 | 1.31 | 1.27 | 1.022 | 0.8 | 0.514 | 0.316 | 0.179 | 0.114 | 0.084 | WT NRG1: wild type human NRG1; native peptide purchased from Reprokine in Tables 7-9; comparator in the screening assays of Tables 4 and 6 |
| 0.651 | 0.597 | 0.485 | 0.347 | 0.224 | 0.154 | 0.111 | 0.088 | 0.071 | 0.07 | 0.066 | 0.066 | WT NRG4: wild type human NRG4 (SEQ ID NO:1); parental hFcNRG4 in screening (Tables 4-6), native peptide from Reprokine in Tables 7-9 (DHEEPCGPSHKSFCLNGGLCYVIPTIPSPFCRCVENYTGARCEEVFL; listed as Homo sapiens) |
